From article PMC5779224 (2017)
Residue numbers refer to the chain shown, from its start. Like-named read-outs stand apart in the source and are kept apart here. Each block holds one binder with its values, some of them ahead of it.

Experiments:
[1] = target: T1, AnkB_MBD (AnkB ANK repeats only, aa 28–827) (human, UniProt Q01484-2 28-827); experiment: ITC
T1 chain: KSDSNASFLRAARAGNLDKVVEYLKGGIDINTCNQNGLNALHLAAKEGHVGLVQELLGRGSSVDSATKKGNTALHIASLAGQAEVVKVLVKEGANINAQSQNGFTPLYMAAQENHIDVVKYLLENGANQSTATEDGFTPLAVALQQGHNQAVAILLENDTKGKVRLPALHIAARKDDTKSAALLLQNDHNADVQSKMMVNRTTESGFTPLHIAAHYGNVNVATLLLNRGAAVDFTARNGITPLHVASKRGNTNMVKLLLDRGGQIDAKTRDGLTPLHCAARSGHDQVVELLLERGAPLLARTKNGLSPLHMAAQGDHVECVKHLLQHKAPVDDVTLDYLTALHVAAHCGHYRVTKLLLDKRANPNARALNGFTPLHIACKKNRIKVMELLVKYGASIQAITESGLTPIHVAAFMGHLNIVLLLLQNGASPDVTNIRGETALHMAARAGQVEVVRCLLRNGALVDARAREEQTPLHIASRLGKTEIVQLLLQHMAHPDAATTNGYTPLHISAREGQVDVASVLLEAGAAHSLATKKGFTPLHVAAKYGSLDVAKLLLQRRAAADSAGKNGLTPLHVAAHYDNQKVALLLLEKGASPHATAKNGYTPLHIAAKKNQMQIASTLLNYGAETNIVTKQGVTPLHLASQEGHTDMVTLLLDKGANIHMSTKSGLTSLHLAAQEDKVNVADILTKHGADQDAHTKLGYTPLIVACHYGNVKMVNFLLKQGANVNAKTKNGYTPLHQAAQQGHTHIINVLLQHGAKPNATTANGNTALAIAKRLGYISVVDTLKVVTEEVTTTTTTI

AnkB_MBD Asn595Ala = target: T2, AnkB_MBD Asn595Ala (human, UniProt Q01484-2 28-827, Asn595Ala); experiment: ITC
T2 sequence: T1 chain with N568A

[2] = target: T1, AnkB_MBD (AnkB ANK repeats only, aa …); experiment: ITC
[3] = target: T3, AnkB_MBD R1 charge reversal mutant ('EAAE') (human, UniProt Q01484-2 28-827, 37RAAR40 to 37EAAE40); experiment: FP
T3 sequence: T1 chain with R10E, R13E

[4] = target: T4, AnkG 38–855 (AnkG MBD-AI-c protein; MBD + partial AI-c) (rat, UniProt O70511-1 38-855); experiment: ITC
T4 chain: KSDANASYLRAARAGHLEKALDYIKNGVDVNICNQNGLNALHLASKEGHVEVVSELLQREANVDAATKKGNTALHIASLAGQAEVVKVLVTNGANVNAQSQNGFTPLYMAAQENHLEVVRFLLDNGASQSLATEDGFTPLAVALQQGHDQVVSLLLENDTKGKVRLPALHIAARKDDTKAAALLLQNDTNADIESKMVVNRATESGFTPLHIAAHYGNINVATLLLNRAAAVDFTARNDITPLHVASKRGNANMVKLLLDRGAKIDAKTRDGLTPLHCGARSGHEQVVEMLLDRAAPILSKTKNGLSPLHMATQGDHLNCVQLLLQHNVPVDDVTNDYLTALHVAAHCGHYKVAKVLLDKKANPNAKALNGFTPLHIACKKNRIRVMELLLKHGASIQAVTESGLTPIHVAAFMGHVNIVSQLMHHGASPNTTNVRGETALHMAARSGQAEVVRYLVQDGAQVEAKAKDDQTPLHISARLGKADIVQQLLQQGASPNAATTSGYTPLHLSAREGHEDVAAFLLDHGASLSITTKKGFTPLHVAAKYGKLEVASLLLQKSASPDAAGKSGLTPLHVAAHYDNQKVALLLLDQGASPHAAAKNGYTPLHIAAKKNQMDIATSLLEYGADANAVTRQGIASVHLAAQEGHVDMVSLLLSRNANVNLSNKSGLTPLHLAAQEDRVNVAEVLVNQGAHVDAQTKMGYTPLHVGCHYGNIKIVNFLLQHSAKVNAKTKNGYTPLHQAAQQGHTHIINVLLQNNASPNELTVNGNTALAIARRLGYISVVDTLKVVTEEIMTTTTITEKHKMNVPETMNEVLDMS

[5] = target: T5, AnkB 28–847 (MBD + partial AI-c) (human, UniProt Q01484-2 28-847); experiment: ITC
T5 chain: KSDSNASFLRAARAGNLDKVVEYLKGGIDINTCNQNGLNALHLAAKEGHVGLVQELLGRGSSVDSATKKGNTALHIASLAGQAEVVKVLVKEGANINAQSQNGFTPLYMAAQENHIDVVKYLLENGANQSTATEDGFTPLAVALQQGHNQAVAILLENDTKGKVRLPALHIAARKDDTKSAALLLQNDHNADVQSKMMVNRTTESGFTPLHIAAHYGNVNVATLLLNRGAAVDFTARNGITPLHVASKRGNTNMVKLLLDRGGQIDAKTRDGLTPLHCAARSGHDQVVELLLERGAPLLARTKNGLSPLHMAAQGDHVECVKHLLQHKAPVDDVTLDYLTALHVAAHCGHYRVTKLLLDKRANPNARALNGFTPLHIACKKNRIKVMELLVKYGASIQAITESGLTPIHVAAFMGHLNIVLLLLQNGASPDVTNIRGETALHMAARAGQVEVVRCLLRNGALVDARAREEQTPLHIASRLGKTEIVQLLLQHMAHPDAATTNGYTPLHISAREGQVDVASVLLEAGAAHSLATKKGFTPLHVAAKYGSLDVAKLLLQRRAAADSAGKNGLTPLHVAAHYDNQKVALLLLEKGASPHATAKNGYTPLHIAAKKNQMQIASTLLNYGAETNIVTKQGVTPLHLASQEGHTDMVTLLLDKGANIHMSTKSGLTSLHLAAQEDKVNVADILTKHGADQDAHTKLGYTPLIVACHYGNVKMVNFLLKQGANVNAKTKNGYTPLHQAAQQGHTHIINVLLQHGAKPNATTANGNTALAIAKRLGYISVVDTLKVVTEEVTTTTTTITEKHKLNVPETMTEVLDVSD

[6] = target: T6, AnkG 38–903 (MBD + AI-c + AI-b) (rat, UniProt O70511-1 38-903); experiment: ITC; too weak to be reliably fit
T6 chain: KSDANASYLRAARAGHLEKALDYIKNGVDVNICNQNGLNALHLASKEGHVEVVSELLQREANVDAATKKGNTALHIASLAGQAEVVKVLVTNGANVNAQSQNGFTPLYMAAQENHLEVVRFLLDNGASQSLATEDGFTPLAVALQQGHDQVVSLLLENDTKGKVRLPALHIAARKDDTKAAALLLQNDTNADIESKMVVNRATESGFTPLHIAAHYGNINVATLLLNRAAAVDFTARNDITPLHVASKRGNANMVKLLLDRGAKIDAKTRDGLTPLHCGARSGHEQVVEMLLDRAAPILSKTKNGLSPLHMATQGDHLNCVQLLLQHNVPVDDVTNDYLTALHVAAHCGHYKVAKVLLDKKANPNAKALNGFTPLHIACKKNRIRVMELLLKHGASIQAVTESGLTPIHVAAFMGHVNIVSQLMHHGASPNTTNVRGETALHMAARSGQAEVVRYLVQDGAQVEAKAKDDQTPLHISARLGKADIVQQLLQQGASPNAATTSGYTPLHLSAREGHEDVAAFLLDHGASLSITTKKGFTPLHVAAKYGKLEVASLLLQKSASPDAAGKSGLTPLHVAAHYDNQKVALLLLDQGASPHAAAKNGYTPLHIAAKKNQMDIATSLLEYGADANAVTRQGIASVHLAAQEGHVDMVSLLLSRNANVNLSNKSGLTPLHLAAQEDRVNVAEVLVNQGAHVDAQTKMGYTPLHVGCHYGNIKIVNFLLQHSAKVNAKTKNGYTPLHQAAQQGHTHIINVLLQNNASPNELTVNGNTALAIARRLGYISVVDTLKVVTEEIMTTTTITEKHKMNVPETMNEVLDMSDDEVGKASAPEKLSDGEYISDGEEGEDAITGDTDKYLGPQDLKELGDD

Binder: CADQYWNEVAVIDAIPLAATEHDTMLEMSDMQVWSAGDHPPIVSEEDIS [AnkR/B_CT Chimera]
Kd [2]: 470 nM

B1: E-cadherin (aa 734–884) (domain or fragment)
chain: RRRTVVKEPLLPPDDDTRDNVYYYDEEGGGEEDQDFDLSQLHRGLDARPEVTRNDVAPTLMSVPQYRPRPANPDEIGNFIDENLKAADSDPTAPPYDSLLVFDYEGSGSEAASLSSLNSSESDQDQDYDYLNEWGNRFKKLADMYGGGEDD
Kd [4]: 610 nM
Kd [5]: 780 nM
Kd [6]: ~45000 nM

The next lines start with the values.

Kd [1]: 360 nM
Kd (AnkB_MBD Asn595Ala): 2400 nM
Binder: TEKHKLNVPETMTEVLDVSDEEGDD (domain or fragment) [AnkB_AI-c (aa 828–852)]

Kd [3]: 43800 nM
Binder: HPPIVSEEDISVG [AnkB_AI-a peptide (aa 1623–1635)]
